Source: patent US20140031283A1, “ANTICANCER FUSION PROTEIN” (ADAMED SP. Z O.O., priority 2011, published 2014)
“And” between values parts separate entries of the source, which are not always exact repeats. Identical values can stand only once. Blank lines part the entries; values can stand above or below the molecule they belong to.

How the values were obtained:
SW620 = experiment: MTT cytotoxicity test, SW620 (human colorectal cancer); type: cell-based; details: Table 4, mean/SD part
Description: (§1) MTT assay is a colorimetric assay used to measure proliferation, viability and cytotoxicity of cells. It consists in decomposition of a yellow tetrazolium salt MTT (4,5-dimethyl-2-thiazolyl)-2,5-diphenyltetrazolium bromide) to the water-insoluble purple dye formazan by mitochondrial enzyme succinate-tetrazolium reductase 1. MTT reduction occurs only in living cells. Data analysis consists in determining IC50 concentration of the protein (in ng/ml), at which the 50% reduction in the number of cells occurs in the population treated compared to control cells. Results were analyzed using GraphPad Prism 5.0 software. The test was performed according to the literature descriptions (Cells, J E, (1998). Cell Biology, a Laboratory Handbook, second edition, Academic Press, San Diego; Yang, Y., Koh, L W, Tsai, J H., (2004); Involvement of viral and chemical factors with oral cancer in Taiwan, Jpn J Clin Oncol, 34 (4), 176-183). Cell culture medium was diluted to a defined density (10^4-10^5 cells per 100 μl). Then 100 μl of appropriately diluted cell suspension was applied to a 96-well plate in triplicates. […] After stirring, the absorbance was measured at 570 nm (reference filter 690 nm). […]

MES-SA = experiment: MTT cytotoxicity test, MES-SA (human uterine sarcoma); type: cell-based
Description: (§2) MTT assay is a colorimetric assay used to measure proliferation, viability and cytotoxicity of cells. It consists in decomposition of a yellow tetrazolium salt MTT (4,5-dimethyl-2-thiazolyl)-2,5-diphenyltetrazolium bromide) to the water-insoluble purple dye formazan by mitochondrial enzyme succinate-tetrazolium reductase 1. MTT reduction occurs only in living cells. Data analysis consists in determining IC50 concentration of the protein (in ng/ml), at which the 50% reduction in the number of cells occurs in the population treated compared to control cells. Results were analyzed using GraphPad Prism 5.0 software. The test was performed according to the literature descriptions (Cells, J E, (1998). Cell Biology, a Laboratory Handbook, second edition, Academic Press, San Diego; Yang, Y., Koh, L W, Tsai, J H., (2004); Involvement of viral and chemical factors with oral cancer in Taiwan, Jpn J Clin Oncol, 34 (4), 176-183). Cell culture medium was diluted to a defined density (10^4-10^5 cells per 100 μl). Then 100 μl of appropriately diluted cell suspension was applied to a 96-well plate in triplicates. Thus prepared cells were incubated for 24 h at 37° C. in 5% or 10% CO2, depending on the medium used, and then to the cells (in 100 μl of medium) further 100 μl of the medium containing various concentrations of tested proteins were added. In the case of combination hTRAIL114-281 and p21WAF effector protein, 100 μl of the medium containing mixture of hTRAIL114-281 and p21WAF effector protein in molar ratio 1:1 was added. After incubation of the cells with tested proteins over the period of next 72 hours, which is equivalent to 3-4 times of cell division, the medium with the test protein was added with […] of MTT working solution [5 mg/ml], and incubation was continued for 3 h at 37° C. in 5% CO2. Then the medium with MTT solution was removed, and formazan crystals were dissolved by adding 100 μl of DMSO. After stirring, the absorbance was measured at 570 nm (reference filter 690 nm).
(§3) The results of in vitro cytotoxicity tests are summarized as IC50 values (ng/ml), which corresponds to the protein concentration at which the cytotoxic effect of fusion proteins is observed at the level of 50% with respect to control cells treated only with solvent. Each experiment represents the average value of at least two independent experiments performed in triplicates. As a criterion of lack of activity of protein preparations the IC50 limit of 2000 ng/ml was adopted.

NCI-H460 = details: Table 4, mean/SD part
MCF10A = experiment: MTT cytotoxicity test, MCF10A (mammary epithelial cells); type: cell-based
Description: as §2, §3

A549 = experiment: MTT cytotoxicity test, A549 (human lung cancer); type: cell-based
Description: as §2, §3

MES-SA/Dx5 = experiment: MTT cytotoxicity test, MES-SA/Dx5 (multidrug-resistant human uterine sarcoma); type: cell-based
Description: as §2, §3
Cells selected for this test included tumor cell lines that are naturally resistant to TRAIL protein (the criterion of natural resistance to TRAIL: IC50 for TRAIL protein >2000), as well as tumor cell lines sensitive to TRAIL protein and resistant to doxorubicin line MES-SA/DX5 as a cancer line resistant to conventional anticancer medicaments.

SK-MES-1 = experiment: MTT cytotoxicity test, SK-MES-1 (human lung cancer); type: cell-based
Description: as §2, §3

PLC/PRF/5 = experiment: MTT cytotoxicity test, PLC/PRF/5 (human liver hepatoma); type: cell-based; details: Table 4, mean/SD part
Description: as §1

HepG2 = experiment: MTT cytotoxicity test, HepG2 (human liver hepatoma); type: cell-based; details: Table 4, mean/SD part
Description: as §1

Panc-1 = experiment: MTT cytotoxicity test, Panc-1 (human pancreatic cancer); type: cell-based; details: Table 4, mean/SD part
Description: as §1

NIH: OVCAR-3 = experiment: MTT cytotoxicity test, NIH: OVCAR-3 (human ovarian cancer); type: cell-based; details: Table 4, mean/SD part
Description: as §1

MDA-MB-231 = experiment: MTT cytotoxicity test, MDA-MB-231 (human breast cancer); type: cell-based; details: Table 4, mean/SD part
Description: as §1

UM-UC-3 = experiment: MTT cytotoxicity test, UM-UC-3 (human bladder cancer); type: cell-based; details: Table 4, mean/SD part
Description: as §1

[1] = continuous incubation over 72 h, test MTT

Description for HCT-116: Data analysis consists in determining IC50 concentration of the protein (in ng/ml), at which the 50% reduction in the number of cells occurs in the population treated compared to control cells. Results were analyzed using GraphPad Prism 5.0 software. […] Cell culture medium was diluted to a defined density (10^4-10^5 cells per 100 μl). Then 100 μl of appropriately diluted cell suspension was applied to a 96-well plate in triplicates. Thus prepared cells were incubated for 24 h at 37° C. in 5% or 10% CO2, depending on the medium used, and then to the cells (in 100 μl of medium) further 100 μl of the medium containing various concentrations of tested proteins were added. […] After incubation of the cells with tested proteins over the period of next 72 hours, which is equivalent to 3-4 times of cell division, the medium with the test protein was added with 20 ml of MTT working solution [5 mg/ml], and incubation was continued for 3 h at 37° C. in 5% CO2. Then the medium with MTT solution was removed, and formazan crystals were dissolved by adding 100 μl of DMSO. After stirring, the absorbance was measured at 570 nm (reference filter 690 nm).

NCI-H460 mean (IC50) (NCI-H460): 0.00711 µg/mL
HCT116 IC50 (HCT-116; [1]): 0.00148 µg/mL
B1: Ex. 23: fusion protein: 13-amino acid inhibitor of RasGAP-Aurora B interactions with 8 arginine residues at N-terminus of TRAIL121-281, uPA and MMP sites (protein)
chain: KWVVSHARLMYSFRRRRRRRRRVVRPLGLAGCRVAAHITGTRGRSNTLSSPNSKNEKALGRKINSWESSRSGHSFLSNLHLRNGELVIHEKGFYYIYSQTYFRFQEEIKENTKNDKQMVQYIYKYTSYPDPILLMKSARNSCWSKDAEYGLYSIYQGGIFELKENDRIFVSVTNEHLIDMDHEASFFGAFLVG
modifications: synthesized, a fusion protein comprising: a fragment of TRAIL protein, a peptide acting as an inhibitor of interactions RasGAP - Aurora B, cleavage sites recognized by uPA and MMP, an arginine transporting domain and a cysteine stabilizing residue.
SW620 mean (IC50) (SW620): 0.01192 µg/mL
MES-SA IC50 (MES-SA; [1]): 0.00061 µg/mL
MCF10A mean (IC50) (MCF10A; Table 4, mean/SD part): 0.005196 µg/mL
MCF10A IC50 (MCF10A; [1]): 0.00598 µg/mL
A549 mean (IC50) (A549; Table 4, mean/SD part, listed as Ex. 23^a): 0.2784 µg/mL and 0.3589 µg/mL
A549 IC50 (A549; [1]): 0.2387 µg/mL
MES-SA/Dx5 IC50 (MES-SA/Dx5; [1]): 0.00013 µg/mL
SK-MES-1 IC50 (SK-MES-1; [1]): 0.00042 µg/mL
PLC/PRF/5 mean (IC50) (PLC/PRF/5): 0.006821 µg/mL
HepG2 mean (IC50) (HepG2): 0.01049 µg/mL
PANC-1 mean (IC50) (Panc-1): 0.0229 µg/mL

HCT116 mean (IC50) (HCT-116; Table 4, mean/SD part): 0.041 µg/mL
B2: Ex. 3: fusion protein: 8-amino acid fragment of human fetoprotein at C-terminus of TRAIL121-281, MMP and uPA cleavage sites (protein)
chain: RVAAHITGTRGRSNTLSSPNSKNEKALGRKINSWESSRSGHSFLSNLHLRNGELVIHEKGFYYIYSQTYFRFQEEIKENTKNDKQMVQYIYKYTSYPDPILLMKSARNSCWSKDAEYGLYSIYQGGIFELKENDRIFVSVTNEHLIDMDHEASFFGAFLVGPLGLAGRVVREMTPVNPG
modifications: synthesized, a fusion protein comprising: a fragment of TRAIL protein, a fragment of human fetoprotein and cleavage sites recognized by uPA and MMP.
notes: fusion protein: 8-amino acid fragment of human fetoprotein at C-terminus of TRAIL121-281, MMP and uPA cleavage sites
MES-SA mean (IC50) (MES-SA; Table 4, mean/SD part): 0.03618 µg/mL
OVCAR-3 mean (IC50) (NIH: OVCAR-3): 0.02751 µg/mL
MES-SA/Dx5 mean (IC50) (MES-SA/Dx5; Table 4, mean/SD part): 0.03431 µg/mL
SK-MES-1 mean (IC50) (SK-MES-1; Table 4, mean/SD part): 0.007755 µg/mL
MDA-MB-231 mean (IC50) (MDA-MB-231): 0.02086 µg/mL
UM-UC-3 mean (IC50) (UM-UC-3): 0.0204 µg/mL
